Measured values published in publication PMC6289755 (Journal of molecular biology, 2018).

Experiments:
TRIM25 CCD = TRIM25 CCD (human, UniProt Q14258 189-379); experiment: EMSA
TRIM25 CCD+7K = TRIM25 CCD+7K (human, UniProt Q14258 189-409); experiment: EMSA
TRIM25 WT [1] = target: T1, TRIM25 WT (human, UniProt Q14258 1-630); experiment: EMSA
TRIM25 SPRY = TRIM25 SPRY (human, UniProt Q14258 410-630); experiment: EMSA
TRIM25 CCD-SPRY = TRIM25 CCD-SPRY (human, UniProt Q14258 189-630); experiment: EMSA
TRIM25 7K peptide = target: T2, TRIM25 7K peptide (human, UniProt Q14258 379-394); experiment: EMSA
T2 chain: PVKKVSKEEKKSKKPP

TRIM25 ΔSPRY (RBCC) = TRIM25 ΔSPRY (RBCC) (human, UniProt Q14258 1-379); experiment: EMSA
SEC-MALS = target: the molecule itself; experiment: SEC-MALS
TRIM25 7KA mutant = TRIM25 7KA mutant (human, UniProt Q14258 1-630, K381A;K382A;K385A;K388A;K389A;K391A;K392A); experiment: SEC-MALS
TRIM25 WT [2] = target: T1, TRIM25 WT; experiment: SEC-MALS

T1 sequence (Q14258 whole entry): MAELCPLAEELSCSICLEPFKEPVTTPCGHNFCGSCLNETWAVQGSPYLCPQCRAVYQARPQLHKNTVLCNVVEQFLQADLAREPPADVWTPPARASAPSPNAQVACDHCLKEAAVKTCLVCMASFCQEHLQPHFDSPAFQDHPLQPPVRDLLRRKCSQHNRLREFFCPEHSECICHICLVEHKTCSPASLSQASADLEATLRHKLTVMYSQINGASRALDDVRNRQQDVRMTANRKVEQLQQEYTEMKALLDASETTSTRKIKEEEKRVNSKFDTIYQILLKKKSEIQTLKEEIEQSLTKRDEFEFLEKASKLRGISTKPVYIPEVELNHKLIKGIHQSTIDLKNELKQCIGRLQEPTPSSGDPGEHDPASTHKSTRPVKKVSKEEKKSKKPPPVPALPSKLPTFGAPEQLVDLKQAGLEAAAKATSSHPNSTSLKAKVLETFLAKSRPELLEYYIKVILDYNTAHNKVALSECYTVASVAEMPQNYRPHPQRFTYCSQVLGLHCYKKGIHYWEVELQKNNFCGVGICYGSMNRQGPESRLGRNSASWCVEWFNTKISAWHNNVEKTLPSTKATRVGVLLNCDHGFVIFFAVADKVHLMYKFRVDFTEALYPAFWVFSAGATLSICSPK
TRIM25 CCD-SPRY, sequence (Q14258 189-630): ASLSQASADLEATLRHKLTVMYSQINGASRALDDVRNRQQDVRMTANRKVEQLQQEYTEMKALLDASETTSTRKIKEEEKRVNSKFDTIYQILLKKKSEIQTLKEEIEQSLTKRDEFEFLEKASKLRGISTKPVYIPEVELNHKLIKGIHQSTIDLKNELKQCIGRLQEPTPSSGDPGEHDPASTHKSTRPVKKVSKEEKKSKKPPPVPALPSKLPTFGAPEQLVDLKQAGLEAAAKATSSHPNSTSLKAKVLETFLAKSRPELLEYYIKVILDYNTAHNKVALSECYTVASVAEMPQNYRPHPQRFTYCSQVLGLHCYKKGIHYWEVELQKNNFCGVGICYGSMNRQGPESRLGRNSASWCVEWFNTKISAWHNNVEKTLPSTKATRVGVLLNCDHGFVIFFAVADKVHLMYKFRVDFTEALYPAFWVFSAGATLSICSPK
TRIM25 CCD+7K, sequence (Q14258 189-409): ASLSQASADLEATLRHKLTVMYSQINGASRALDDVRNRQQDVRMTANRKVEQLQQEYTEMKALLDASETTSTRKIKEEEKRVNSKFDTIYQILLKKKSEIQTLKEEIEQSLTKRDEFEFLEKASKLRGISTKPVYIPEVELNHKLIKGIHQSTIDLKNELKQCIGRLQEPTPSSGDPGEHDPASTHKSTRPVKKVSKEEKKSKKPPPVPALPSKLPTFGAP

B1: 28-bp dsRNA, fluorescent (dsRNA)
RNA 1: AUGGCUAGCUGGAGCCACCCGCAGUUCG
RNA 2: CGAACUGCGGGUGGCUCCAGCUAGCCAU
TRIM25 CCD
  binding result: no binding
TRIM25 CCD+7K
  binding result: no binding
TRIM25 WT [1]
  Kd: 260 ± 30 nM
TRIM25 SPRY
  Kd: 3470 ± 1170 nM
TRIM25 CCD-SPRY
  Kd: 110 ± 20 nM
TRIM25 7K peptide
  binding result: no binding
TRIM25 ΔSPRY (RBCC)
  binding result: no binding

B2: Full-length TRIM25 7KA mutant, purified (enzyme, human, UniProt Q14258 1-630, looked up)
chain: MAELCPLAEELSCSICLEPFKEPVTTPCGHNFCGSCLNETWAVQGSPYLCPQCRAVYQARPQLHKNTVLCNVVEQFLQADLAREPPADVWTPPARASAPSPNAQVACDHCLKEAAVKTCLVCMASFCQEHLQPHFDSPAFQDHPLQPPVRDLLRRKCSQHNRLREFFCPEHSECICHICLVEHKTCSPASLSQASADLEATLRHKLTVMYSQINGASRALDDVRNRQQDVRMTANRKVEQLQQEYTEMKALLDASETTSTRKIKEEEKRVNSKFDTIYQILLKKKSEIQTLKEEIEQSLTKRDEFEFLEKASKLRGISTKPVYIPEVELNHKLIKGIHQSTIDLKNELKQCIGRLQEPTPSSGDPGEHDPASTHKSTRPVAAVSAEEAASAAPPPVPALPSKLPTFGAPEQLVDLKQAGLEAAAKATSSHPNSTSLKAKVLETFLAKSRPELLEYYIKVILDYNTAHNKVALSECYTVASVAEMPQNYRPHPQRFTYCSQVLGLHCYKKGIHYWEVELQKNNFCGVGICYGSMNRQGPESRLGRNSASWCVEWFNTKISAWHNNVEKTLPSTKATRVGVLLNCDHGFVIFFAVADKVHLMYKFRVDFTEALYPAFWVFSAGATLSICSPK
SEC-MALS
  binding result: binds

B3: 56-bp dsRNA (dsRNA)
RNA 1: AUGGCUAGCUGGAGCCACCCGCAGUUCGUACAAGGAUGACGAUGACAAGGGUACAA
RNA 2: UUGUACCCUUGUCAUCGUCAUCCUUGUACGAACUGCGGGUGGCUCCAGCUAGCCAU
TRIM25 7KA mutant
  binding result: no binding
TRIM25 WT [2]
  binding result: binds
